Results published in the DeepSol protein solubility set.

Assay: soluble on expression in E. coli; label from the status in PepcDB or PDB records

Sequence | soluble on expression in E. coli
MIEIESRELADIPVLHAYPVGQKDTPLPCVIFYHGFTSSSLVYSYFAVALAQAGLRVIMPDAPDHGSRFSGDEARRLNQFWQILLQSMQEFTTLRAAIAEENWLLDDRLAVGGASMGAMTALGITARHPTVKCTASMMGSGYFTSLARSLFPPLIPETAAQQNEFNKIVAPLAEWEATNHLEQLGDRPLLLWHGLDDDVVPADESLRLQQALSETGRDKLLTCSWQPGVRHRITPEALDAAVTFFRQHL | not soluble
MNVLICQQPKELVWKQREIPIPGDNEALIKIKSVGICGTDIHAWGGNQPFFSYPRVLGHEICGEIVGLGKNIADLKNGQQVAVIPYVACQQCPACKSGRTNCEKISVIGVHQDGGFSEYLSVPVANILPADGIDPQAAALIEPFAISAHAVRRAAIAPGEQVLVVGAGPIGLGAAAIAKADGAQVVVADTSPARREHVATRLELPLLDPSAEDFDAQLRAQFGGSLAQKVIDATGNQHAMNNTVNLIRHGGTVVFVGLFKGELQFSDPEFHKKETTMMGSRNATPEDFAKVGRLMAEGKITADMMLTHRYPFATLAETYERDVINNRELIKGVITF | not soluble
MIVGEDQLWGRRALEFVDSVERLEAPALISRFESLIASCGFTAYIMAGLPSRNAGLPELTLANGWPRDWFDLYVSENFSAVDPVPRHGATTVHPFVWSDAPYDRDRDPAAHRVMTRAAEFGLVEGYCIPLHYDDGSAAISMAGKDPDLSPAARGAMQLVSIYAHSRLRALSRPKPIRRNRLTPRECEILQWAAQGKTAWEISVILCITERTVKFHLIEAARKLDAANRTAAVAKALTLGLIRL | not soluble
MAEKRTVRPFAGTERRAKGWIQEAALRMLNNNLHPDVAERPDELIVYGGIGKAARNWECYEAIVDTLLRLENDETLLIQSGKPVAVFRTHPDAPRVLIANSNLVPAWATWDHFHELDKKGLIMYGQMTAGSWIYIGSQGIVQGTYETFAEVARQHFGGTLAGTITLTAGLGGMGGAQPLAVTMNGGVCLAIEVDPARIQRRIDTNYLDTMTDSLDAALEMAKQAKEEKKALSIGLVGNAAEVLPRLVETGFVPDVLTDQTSAHDPLNGYIPAGLTLDEAAELRARDPKQYIARAKQSIAAHVRAMLAMQKQGAVTFDYGNNIRQVAKDEGVDDAFSFPGFVPAYIRPLFCEGKGPFRWVALSGDPEDIYKTDEVILREFSDNERLCHWIRMAQKRIKFQGLPARICWLGYGERAKFGKIINDMVAKGELKAPIVIGRDHLDSGSVASPNRETEGMKDGSDAIADWPILNALLNAVGGASWVSVHHGGGVGMGYSIHAGMVIVADGTKEAEKRLERVLTTDPGLGVIRHADAGYELAIRTAKEKGIDMPMLK | soluble
MKNYIAIHPGEILREEYLKEYALSAYALAKALNVPRTRIERIVAENSRITPDTALRLASFFDTTAEFWLNMQAAYDVSVLQAEKADEFSKISKFECRV | not soluble
MSLDESKGFIEDSKLSVKTRMLYFSRDFRNNAPGSQSRVEETGLGFLGTFESGFTQGTVGFGVDAIGMLGLKLDSGKGRAGTGLFPTGADGRSQDDYSEGGGAVKMRISNTVLKFGDQFTALPVLATDDSRLLPEVAEGGLITSNEIDDLTVHAGHFTALNAQAQTYHDSLNLTEANVFGGTYAITDSLSTSVYYSRIEDHFRKWYGNINWALPISDKQGLVFDFNIYDTKSIGNNLTGAYVSKSDGTNELDNIAASLSAAYNVGAHTFTLAYQKVSGDGDYAYGVDGGGTVFLANSVARSDFNAEDEKSWQARYDLNFAEFGVPGLTFMTRYVSGTGATTRTTDSGKEWERDIDVKYVMQSGPAKDLSFRVRQATYRSGEGHHHHHH | soluble
MGSDKIHHHHHHMKVQYECLTCMANQCQRIVEMATQDMDIRRRAMILAAKLLAKEYNENAIPAIAGSLIFLELYKFLGNDDPFIEYKLKSEEMARKVADIIKRKLKLDFELAVKLAIIGNVIDFSVGFSPEDLEEEVEKMLKDKLYIDDSKELFEEVKRAENILYITDNVGEHYFDAILIEKIREISNAEVYIAGKEGPIINDATVEDLKRAGLEKLGKVISTGTRIVGVPLKLVSREFMEAFNKADVIIAKGQGNFETLSEINDSRIFFLLKAKCPAVARELKVPKGALVCMRNKFKL | soluble
MGSDKIHHHHHHMFNLKPELVARLERVLTSVEMLLPRPTAPVDWSVCHAASWRRHSFSGYLEPVRQTDTVTLPELLGIEKQKEVMTNNTLQFLRGLPANNALLWGSRGTGKSSLVKALLNEYAAQGLRIVQVEKEDLIYLSEIFAAVENEPYRFILLCDDLSFEVGELSYKMLKSALDGSVYSAPENVLIYVTSNRRHLIPEYESDNVGWKYVNGELQQSEAMEEKISLSDRFGLWVAFHVFSQDRYLEAVRLCIEREARQRRVEIPWAKEIEREAIQWSHDKSKRCGRTAFQFSRHWVGRYLLGGR | not soluble
